Assay results taken from publication PMC7840605.

Key:
[1] = biological target: SARS-CoV-2 spike (S) protein (SARS-CoV-2) (UniProt P0DTC2)
[2] = biological target: SARS-CoV-2 spike (S) protein (SARS-CoV-2) (UniProt P0DTC2); remark: listed apart in the source
[3] = biological target: SARS-CoV-2 S protein (RBD) (SARS-CoV-2) (UniProt P0DTC2); experiment: ELISA; competitive inhibition ELISA: 1 μg/ml ACE2 coated in 0.01 M Tris pH 8.8; S (RBD) 1 μg/ml pre-incubated with HP-OVA or unmodified OVA at the indicated concentrations was added; antibody detection, absorbance at 450 nm
[4] = biological target: SARS-CoV-2 spike (S) protein (SARS-CoV-2) (UniProt P0DTC2); remark: listed apart in the source

“3-hydroxyphthalic anhydride-modified chicken ovalbumin (from UniProt P01012 1-386)” was tested. Which IC50 of inhibition of S-mediated cell-cell fusion of 293T/SARS-CoV-2/EGFP and Huh 7 cells; blocks S with ACE2 [1] did it give?
Its IC50 of inhibition of S-mediated cell-cell fusion of 293T/SARS-CoV-2/EGFP and Huh 7 cells; blocks S with ACE2 is 1540 nM.

And the IC50 of inhibition of S-mediated cell-cell fusion of 293T/SARS-CoV-2/EGFP and Vero E6 cells; blocks S with ACE2 [1]?
The IC50 of inhibition of S-mediated cell-cell fusion of 293T/SARS-CoV-2/EGFP and Vero E6 cells; blocks S with ACE2 was 1740 nM.

What about the IC50 against live SARS-CoV-2 in Vero E6 cells (CPE assay); blocks S with ACE2 [2] of the same substance?
Its IC50 against live SARS-CoV-2 in Vero E6 cells (CPE assay); blocks S with ACE2 is 4780 nM.

And the IC90 against live SARS-CoV-2 in Vero E6 cells (CPE assay); blocks S with ACE2 [2]?
Its IC90 against live SARS-CoV-2 in Vero E6 cells (CPE assay); blocks S with ACE2 is 12200 nM.

What about the IC50 [3] of the same substance?
Its IC50 is 17800 nM.

What about the IC50 of inhibition of SARS-CoV-2 S pseudovirus entry into 293T/ACE2 cells (luciferase); blocks S with ACE2 [4] of the same substance?
The IC50 of inhibition of SARS-CoV-2 S pseudovirus entry into 293T/ACE2 cells (luciferase); blocks S with ACE2 was 700 nM.

What about the IC50 of inhibition of SARS-CoV-2 S pseudovirus entry into Vero E6 cells (luciferase); blocks S with ACE2 [4] of the same substance?
The IC50 of inhibition of SARS-CoV-2 S pseudovirus entry into Vero E6 cells (luciferase); blocks S with ACE2 was 1210 nM.
